Data on 41 sequences can be found in the nanobody polyreactivity screen of Harvey et al. (2022).

The nature of this series: yeast display, Sf9 membrane polyspecificity reagent, FACS + sequencing; frameworks hold sequencing errors. In a few lines: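 Synthetic nanobody libraries on Saccharomyces cerevisiae BJ5465 were galactose-induced for 36–48 hours, stained 1 hour at 4 °C with 10% biotinylated, detergent-solubilized Sf9 membrane reagent and enriched on streptavidin microbeads. FACS then separated cells into low and high (top ~1%) gates by anti-HA (expression) and streptavidin (reagent binding) fluorescence. Genes were colony-PCR amplified, MiSeq 2 × 250 sequenced and CDR-length filtered. A clone's polyreactivity label is that of its gate of origin.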
In the case of “QVQLVESGGGLVQAGGSLRLSCAASGRIFDYNAMGWYRQAPAKERELVAAITWSGGSTHYADSVKGRFTISRDNAKNTVYLQMKSLKPEDTAVYYCAADIGGDYLVFYYRGGYDYWGQGNQVTVSS”, the “polyreactivity (PSR sort gate)” value is given as “low polyreactivity”.
The entry for “QVQLVESGGGLVQAGGSLRLICAASGSIFRLNTMGWYRQAPGKERELVAAIFTSGGSTYADSVKGRFTISRDNAKNTVYLQMNSLKPEDTAVYYCAGMDYWGQGTQVTVSS” is “low polyreactivity”; for “QVQLVESGGGLVQAGGSLRLSCAASGSIFNINAMGWYRQAPGKESELVATITSGGTTSYADSVKGRFTISRDNAKNTVYLQMNSLKPEDTAVYYCNAEIYPIVKAGLQHPRRYDYWGQGTQVTVSS” it is “low polyreactivity”.
The entry for “QVQLEESGGGLVQAGGILRLSCAASGSIFIPNAMGWYRQAPGKERELVAAIRSGGSTYYADSVKGRFTISRDNAKNTVYLQMNSLKPEDTAVYYCAADTYTYYYYLARYYYWGQGTQVTVSS” is “low polyreactivity”.
The entry for “QVQLVESGGGLVQAGGSLRLSCAASGRIFWVYVMGWYRQAPGKERELVADITSIGGSTYYADSVKGRFTISRDNAKNTVDLQMNSLKPEDTAVYYCAAARRPTYCPVYPYFGYEYWGQGTQVTVSS” is “low polyreactivity”; for “QVQLVESGGGLVQAGGSLRLSCAASGLIFVANAMGWYRQAPGKERELVAAISRSGGITYYADSVKGRFTISRDNAKNTVYLQMNSLKPEDTAVYYCAAELVYFFIYDYWGQGTQVTVSS” it is “low polyreactivity”; for “QVQLVESGGGLVQAGGSLRLSCAASGIIYGIYAMGWYRQAPGKERELVAAITSRGGTTYYADSVKGRFTISRDNAKNTVYLQMNSLKPEDTAVYYCAARGRRYSHRVGYDWGQGTQVTVSS” it is “high polyreactivity”.
As for “QVQLVESGGGLVQAGGSLRLSCAASGSIFSSYVMGWYRQAPGKERELVAAISRSGGSTYYADSVKGRFTISRDNAKNTVYLQMNSRKPEDTAFYYCAADWTRGSPGMDYWGQGTQVTVSS”, the “polyreactivity (PSR sort gate)” value is on record as “high polyreactivity”.
For the sequence “QVQLVESGGGLVQAGGSLRLSCAASGGILDTYAMGWYRQAPGKERELVAAITSGGNTNYADSVKGRFTISRDNAKNTVYLQMNSLKPEDTAVYYCNVVTWYYVFRPWEYDYWGQGTQVTVSS”, the “polyreactivity (PSR sort gate)” value is recorded as “low polyreactivity”.
On to “QVQLVESGGGLVQAGGSLRLSCAASGSTFEEYAMGWYRKAPGKERELVAGITWGGGSTYYADSVKGRFTISRDNAKNTVYLQMNSLKPEDTAVYYCVFAFEYYYWGQGTQVTVSS”, for which the “polyreactivity (PSR sort gate)” value is “low polyreactivity”.
Take “QVQLVESGGGLVQAGGSLRLSCAASGRIFSNNAIGWYRQAPGKARELVAAHSWNGGRTYYADSVKGRFTISRDNGKNTVYLQMNSLQPEDPAVYYCTKHDAQTRSFASTWYVYWGQGTQVTVSS”: the “polyreactivity (PSR sort gate)” value is “high polyreactivity”.
As to “QVQLVESGGGLVQAGGSLRLSCAASGRTFLLYAMGWYRQAPGKERELVARITGRGGRTYYADSVKGRFTISRDNAKNTVYLQMNSLKPEDTAVYYCNKRYPLGTEYYYWGQGTQVTVSS”, the “polyreactivity (PSR sort gate)” value is “high polyreactivity”.
For “QVQLVESGGGLVQAGGSLRLSSAASGFTFSQYAMGWYRQAPGKERELVAAISVSGGTTYYADSVKGRFTISRDNAKNTVYLQMNSLKPEDTAVYYCAARTPYSRSPYVNTSGYYYWGQGTQVTVSS”, the “polyreactivity (PSR sort gate)” value is “high polyreactivity”.
Turning to “QVQLVESGGGLVQAGGSLRLSCAASGRTFWDYMGWYRQAPGKERELVATITSSGGSTYYADSVKGRFTISRDNAKNTVYLQMNSLKPEDTAVYYCNADWYLWSTFAQGYGYWGQGTQVTVSS”, the “polyreactivity (PSR sort gate)” value is reported as “high polyreactivity”.
For the sequence “QVQLVESGGGLVQAGGSLRLSCAASGSIFSRYAMGWYRQAPGKERELVAAISKSGGTTYYADSVKGRFTISRDNAKNTVYLQMNSLKPEDTAVYYCNAKRYRNGSIGMGYWGQGTQVTVSS”, the “polyreactivity (PSR sort gate)” value was “high polyreactivity”.
For the sequence “QVQLVESGGGLVQAGGSLRLSCAASGRTFGGNAMGWYRQAPGKERELVASISWSGGTTYYADSVKGRFTISRDNAKNTVYFQMNSLKPEDTAVYYCNTVNSQQYSSSHYDSWGQGTQVTVSS”, the “polyreactivity (PSR sort gate)” value is recorded as “high polyreactivity”.
Take “QVQLVESGGGLVQAGGSLRLSCAASGITFSSYAMGWSRQAPGKERELVAAIRRRGGTTYYADSVKGPFTISRDNAKNTVYLQMNSLKPEDTAVYYCAARSKSAYWGQGTQVTVSS”: the “polyreactivity (PSR sort gate)” value is reported as “high polyreactivity”.
The entry for “QVQLVESGGGLVQAGGSLRLSCAASGRIFIRYAMGWYRQAPGKERELVASISRNGGTTYYADSVKGRFTISRDNAQNTVYLQMNSLKPEDTAVYYCNTVHRSVDKAGYDYWGQGTQVTVSS” is “high polyreactivity”; for “QVQLVESGGGLVQAGGSLRLSCAASGYIFRRYAMGWYRQAPGKERELVAAISKSGVSTYYADSVKGRFTISRDNAKNTVYLQMNSLKPEDTAVYYCAASSYTWGEDYWGQGTQVTVSS” it is “high polyreactivity”; for “QVQLVESGGGLVQAGGSLRLSCAPSGRIFGTYAMGWYRQAPGKERELVASIRSRGGRTYYADSVKGRFTISRDNAKNTVYLQMNSLKPEDTAVYYCAADVGVYYYSFYYWGQGTQVTVSS” it is “high polyreactivity”.
Take “QVQLVESGGGLVQAGGSLRLSCAASGYTFSRYAMGWYRPAPGKERELVAAITGRGGSTYYADSVKGRFTISRDNAKNTVYLLMNSLKPEDTAVYYCAVGRYPYVWRYYYWGQGTQVTVSS”: the “polyreactivity (PSR sort gate)” value is “high polyreactivity”.
On to “QVQLVDSGGGLVQAGGSLRLSCAASGRTFAFNYAMGWYRQAPGKERELVAAISSSGTRTRYADSVKGRFTISRDNAKNTVYLQMNSLKPEDTAVYYCSKRSLGIGRSNYWGQGTQVTVSS”, for which the “polyreactivity (PSR sort gate)” value is “high polyreactivity”.
Consider “QVQLVESGGGLVEAGGSLRLTCAAYGSIFSAYAMGWYRAAPGKERELVAAITRGTSTNYADSVKGRFTISRDNAKNTVYLQMNSLKPEDTAVYYCAVGYNSKLAVGMYYWGLGTQVTVSS”, for which the “polyreactivity (PSR sort gate)” value was “low polyreactivity”.
Consider “QVQLVESGGGLVQAGGSLRLSCAASGRTLTSYAMGWYRQAPGKERELVARISNGGNTKYADSVNGRFTISRDNAKNTVYLQMNSLKPEDTAVYYCAADYSYYHGPSRHKHDYWGQGTKVTVSS”, for which the “polyreactivity (PSR sort gate)” value is listed as “low polyreactivity”.
The entry for “QVQLVESGGGLVQAGGRLRLSCAASGIISSAYAIGWYRQAPGKERELVAAISSGGSTKYADSVKGRFTISRDNAKNTVYLQMNSLKPEDTAVYYCAARTRYPYKVFGYWGQGTQVTVSS” is “high polyreactivity”.
Regarding “QVQLEESGGCLVQAGGSLRLSCAASGRIITSNDMGWYRQAPGKERELVAAISKSGGRTYYADSVKGRFTISRDNAKNTVYLQMNSLKPEDTAVYYCAKDNYWGQGTQVTVSS”, the “polyreactivity (PSR sort gate)” value is reported as “high polyreactivity”.
The result for “QVQLVESGGGLVQAGGSLRLTCAASGSTFGWYTKGWYRQAPGKERELVAAISSGGSTYYADSVKGRFTISRDNAKNTVYLQMNSLKPEDTAVYYCNAKVPSSYSYYSYYEYDYWGQGTQVTVSS” reads “low polyreactivity”; that for “QVQLVESGGGLVQAGGSLRLSCAASGFIFDKNAMGWYRQAPGKERELVAAITSSGGSTYADSVKGRFTISRDNAKNTVYLQMNSLKPEDTAVYYCAARWYRPWYVTDSGDDYWGQGTQVTVSS”, “low polyreactivity”.
In the case of “QVQLVESGGGLVQAGGSLRLSCAASGSTLSVYAMGWYRQAPGKERELVAVISRSGGSTYYADSVKGRFTISRDNAKNTVYLQMNSLKPEDTAVYYCAARGRRTGDYDYWGQGTQVTVSS”, the “polyreactivity (PSR sort gate)” value is given as “high polyreactivity”.
“QVQLVESGGGLVQAGGSLRLSCAASGRIFGFYAMGWYRQAPGKERELVARITSGGRTTYADSVKGRFTISRDNAKNTVYLQMNSLKPEDTAVYYCAADARYHGFPKVYYYRGGYDYWGQGTQVTVSS”: the “polyreactivity (PSR sort gate)” value was “high polyreactivity”.
Consider “QVQLVESGGGLVQAGGSLRLSCAASGSTFDINAMGWYRQAPGKERELFASITFSGGSTYYADSVKGRITISRDYEKNNVYLQMNSLKPEDTAVYYCAADSSGEYPGGYWGQGTQVTVSS”, for which the “polyreactivity (PSR sort gate)” value is reported as “low polyreactivity”.
The entry for “QVHLVESGGGLVQAGGSLRLSCAASGFNFLIYAMGWYRQAPGKERELVAAITLRGSGTYYADSVKGRFTISRDNAKNTVYLQMNSLKPEDTAVYDCAAGTARRTYDYWGQGTQVTVSS” is “low polyreactivity”; for “QVQLVESGGGLVQAGGSLRLSCAASGIIFGVNVMGWYRQAPGKERELVATITWRGDSTYYADSVKGRFTISRDNAKNTVYLQMNSLKPEDTAVYYCAVLRSWWYRYDYWGQGTQVTVSS” it is “low polyreactivity”; for “QVHLVESGGGLVQAGGSLRLSCAASGSTFYTYVMGWYRQAPGKERELVAAISEDDGNTYYADSVKGRFTISRDNAKNTVYLQMNSLKPEDTAVYYCAADWEDDLAYSAYDYWGQGTQVTVSS” it is “high polyreactivity”.
As for “QGQLVESGGGLVQAGGSLRLSCAASGSIFRGYAMGWYRQAPGKERELVAAISWSGGSTYYADSVKGRFTISRDNAKNTVYLQMNSLKPEDTAVYYCAADRDVFGYWYYYWGQGTQVTVSS”, the “polyreactivity (PSR sort gate)” value is on record as “high polyreactivity”.
For “QVQLVESGGGLVQAGGSLRLICAASGRILYTYAMGWYRQAPGKERELVAGISRGGRTYYADSVKGRFTISRDNAKNTVYLQMNSLKPEDTAVYYCAARLQYGIQYRYDYWGQGTLVTVSS”, the “polyreactivity (PSR sort gate)” value is on record as “high polyreactivity”.
As for “QVQLVESVGGLVQAGGSLRLRCSASGSIFKYNAMGWYRQAPGKVRELVADITRSGGRTYYADSVKGRFTISRDNEKNTVYVQMNSLKTEDTAVYYCYAVTPTTLGDYWGQGTQVTVSS”, the “polyreactivity (PSR sort gate)” value was “high polyreactivity”.
As for “QVQLVESGGGLVQAGGSLRLSCAASGFTFRWYTMVWYRQAPGKERELVAAITGSGCTTYYADSVKGRFTISRDNAKNTVYLQMNSLKPEDTAVYYCAARTATSSPSWYEYWGQGTQVTVSS”, the “polyreactivity (PSR sort gate)” value is “high polyreactivity”.
As for “QVQLQESGGGLVQAGGSLRLSSAASGTISPLPAMGWYRHAPGKEREFVAGIDTGAIHNYADSVKGRFTIRRDNAKNTVYLQMNSLKPEDTAVYYCAVFPAAYEYYERYYTYWGQGTQVTVSS”, the “polyreactivity (PSR sort gate)” value was “low polyreactivity”.
Regarding “QVQLVESGGGLVQAGGSLRLSCAASGFIFRTYAMGWYRQAPGKEREFVAAISSGSSTYYADSEKGRFTISRDNANNSVYLQMISLKPEDTAVYYCAARVPQQSRTWRGSTRSYRYGYWGQGTQVTVSS”, the “polyreactivity (PSR sort gate)” value was “high polyreactivity”.
The entry for “QVQLVESGGGLVQAGGSLRLSCAASGITLFGYAMGWYRQAPGKERELVAAITSGGSTYYADSVKGRFTISRDNAKNTVYLQMNSLKPEDTAVYYCATSYVYYKYYSQEIYVYGFEYWGQGTQVTVSS” is “high polyreactivity”.
